Patent US20160136234A1

How the values were obtained:
Test in all cases: cell-based or functional assay
MLK1 (h) (human) = MLK1 (h) (human) (UniProt P80192)
[1] = biological target: Hck (h) activated (human) (UniProt P08631)
GCK (h) (human) = biological target: T1, GCK (h) (human) (UniProt Q12851)
T1 sequence (looked up): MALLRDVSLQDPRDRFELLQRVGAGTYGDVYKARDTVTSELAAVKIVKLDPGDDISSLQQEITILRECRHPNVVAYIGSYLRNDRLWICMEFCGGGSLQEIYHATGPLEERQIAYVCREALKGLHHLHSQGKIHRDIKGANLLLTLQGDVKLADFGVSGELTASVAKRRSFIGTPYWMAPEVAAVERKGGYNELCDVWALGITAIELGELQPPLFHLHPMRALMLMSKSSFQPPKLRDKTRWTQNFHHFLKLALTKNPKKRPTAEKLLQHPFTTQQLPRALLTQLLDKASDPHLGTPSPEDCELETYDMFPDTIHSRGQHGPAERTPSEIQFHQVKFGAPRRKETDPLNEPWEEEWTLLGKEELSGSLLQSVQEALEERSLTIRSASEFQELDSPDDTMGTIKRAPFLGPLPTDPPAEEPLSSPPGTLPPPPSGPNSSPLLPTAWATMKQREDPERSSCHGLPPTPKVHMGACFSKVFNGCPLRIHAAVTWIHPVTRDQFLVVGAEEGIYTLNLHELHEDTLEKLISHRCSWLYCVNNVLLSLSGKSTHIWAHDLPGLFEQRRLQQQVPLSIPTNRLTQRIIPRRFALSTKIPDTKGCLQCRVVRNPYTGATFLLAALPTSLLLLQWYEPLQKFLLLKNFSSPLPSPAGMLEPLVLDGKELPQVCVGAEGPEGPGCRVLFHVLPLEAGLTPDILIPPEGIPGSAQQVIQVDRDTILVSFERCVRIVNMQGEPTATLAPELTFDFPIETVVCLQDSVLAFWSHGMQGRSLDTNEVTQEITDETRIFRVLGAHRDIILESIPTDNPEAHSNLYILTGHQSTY

NEK2 (h) (human) = biological target: T2, NEK2 (h) (human) (UniProt P51955)
T2 sequence (looked up): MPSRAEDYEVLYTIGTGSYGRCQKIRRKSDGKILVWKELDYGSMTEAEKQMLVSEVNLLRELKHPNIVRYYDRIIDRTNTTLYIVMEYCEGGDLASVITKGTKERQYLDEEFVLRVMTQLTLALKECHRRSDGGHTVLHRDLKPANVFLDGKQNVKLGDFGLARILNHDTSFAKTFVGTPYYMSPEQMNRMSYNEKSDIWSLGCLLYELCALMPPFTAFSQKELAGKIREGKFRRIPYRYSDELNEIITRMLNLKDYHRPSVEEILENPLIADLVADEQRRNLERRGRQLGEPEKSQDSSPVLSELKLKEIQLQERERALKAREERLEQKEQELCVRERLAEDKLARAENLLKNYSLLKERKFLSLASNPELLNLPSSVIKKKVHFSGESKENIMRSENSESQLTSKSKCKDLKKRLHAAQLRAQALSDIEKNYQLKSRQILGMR

CLK3 (h) (human) = CLK3 (h) (human) (UniProt P49761)
Rsk4 (h) (human) = Rsk4 (h) (human) (UniProt Q9UK32)
CK1γ3 (h) (human) = CK1γ3 (h) (human) (UniProt Q9Y6M4)
Aurora-A (h) (human) = biological target: T3, Aurora-A (h) (human) (UniProt O14965)
T3 sequence (looked up): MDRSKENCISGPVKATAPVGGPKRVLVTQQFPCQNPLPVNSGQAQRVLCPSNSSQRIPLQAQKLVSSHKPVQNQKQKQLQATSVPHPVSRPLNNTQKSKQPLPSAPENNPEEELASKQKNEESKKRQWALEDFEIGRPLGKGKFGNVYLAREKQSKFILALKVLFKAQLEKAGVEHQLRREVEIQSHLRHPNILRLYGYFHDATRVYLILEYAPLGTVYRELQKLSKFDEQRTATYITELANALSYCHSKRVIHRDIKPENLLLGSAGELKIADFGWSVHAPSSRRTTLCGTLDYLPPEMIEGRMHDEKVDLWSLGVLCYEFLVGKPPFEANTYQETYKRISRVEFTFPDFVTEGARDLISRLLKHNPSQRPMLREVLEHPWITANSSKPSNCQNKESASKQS

Tie2(Y897S) (h) (human) = Tie2(Y897S) (h) (human) (UniProt Q02763)
ALK4 (h) (human) = biological target: T4, ALK4 (h) (human) (UniProt P36896)
T4 sequence (looked up): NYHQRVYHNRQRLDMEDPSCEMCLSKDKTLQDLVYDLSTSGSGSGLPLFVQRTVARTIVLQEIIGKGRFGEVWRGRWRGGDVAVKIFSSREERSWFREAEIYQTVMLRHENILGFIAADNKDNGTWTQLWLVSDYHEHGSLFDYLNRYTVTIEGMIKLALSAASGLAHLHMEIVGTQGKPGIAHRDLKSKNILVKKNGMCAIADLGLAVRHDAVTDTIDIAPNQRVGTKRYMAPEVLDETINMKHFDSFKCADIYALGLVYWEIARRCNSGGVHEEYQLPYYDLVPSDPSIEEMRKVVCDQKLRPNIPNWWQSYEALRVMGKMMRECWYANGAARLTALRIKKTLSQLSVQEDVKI

mTOR/FKBP12 (h) (human) = mTOR/FKBP12 (h) (human) (UniProt P42345)
WNK2 (h) (human) = WNK2 (h) (human) (UniProt Q9Y3S1)
PAK5 (h) (human) = PAK5 (h) (human) (UniProt Q9P286)
[2] = biological target: Mitogen-Activated Protein Kinase-Activated Protein Kinase 2 (human) (UniProt P49137)
PKCα (h) (human) = PKCα (h) (human) (UniProt P17252)
PKBβ (h) (human) = PKBβ (h) (human) (UniProt P31751)
CSK (h) (human) = CSK (h) (human) (UniProt P41240)

Rsk4 (h) (human), sequence (Q9UK32 whole entry): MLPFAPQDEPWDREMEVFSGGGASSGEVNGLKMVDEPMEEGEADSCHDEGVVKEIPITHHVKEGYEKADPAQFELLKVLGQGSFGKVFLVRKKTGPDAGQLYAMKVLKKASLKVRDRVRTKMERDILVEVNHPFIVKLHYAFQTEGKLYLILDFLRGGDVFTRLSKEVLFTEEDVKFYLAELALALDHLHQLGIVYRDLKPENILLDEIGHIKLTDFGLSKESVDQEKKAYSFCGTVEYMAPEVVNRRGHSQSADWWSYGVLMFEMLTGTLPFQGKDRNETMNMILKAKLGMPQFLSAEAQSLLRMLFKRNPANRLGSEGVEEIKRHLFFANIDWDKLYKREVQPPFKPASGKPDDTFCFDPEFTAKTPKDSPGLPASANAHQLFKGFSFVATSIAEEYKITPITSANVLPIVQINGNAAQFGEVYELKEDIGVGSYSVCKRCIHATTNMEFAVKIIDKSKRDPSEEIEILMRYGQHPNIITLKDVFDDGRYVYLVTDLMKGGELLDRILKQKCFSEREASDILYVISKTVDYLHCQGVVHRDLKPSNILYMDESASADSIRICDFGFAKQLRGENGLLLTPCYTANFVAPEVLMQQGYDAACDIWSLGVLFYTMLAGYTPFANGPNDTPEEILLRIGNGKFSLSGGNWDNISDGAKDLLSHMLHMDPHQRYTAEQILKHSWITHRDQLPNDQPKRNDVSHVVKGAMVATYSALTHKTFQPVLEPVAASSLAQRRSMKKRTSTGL
Tie2(Y897S) (h) (human), sequence (Q02763 771-1124 Y897S limits assumed): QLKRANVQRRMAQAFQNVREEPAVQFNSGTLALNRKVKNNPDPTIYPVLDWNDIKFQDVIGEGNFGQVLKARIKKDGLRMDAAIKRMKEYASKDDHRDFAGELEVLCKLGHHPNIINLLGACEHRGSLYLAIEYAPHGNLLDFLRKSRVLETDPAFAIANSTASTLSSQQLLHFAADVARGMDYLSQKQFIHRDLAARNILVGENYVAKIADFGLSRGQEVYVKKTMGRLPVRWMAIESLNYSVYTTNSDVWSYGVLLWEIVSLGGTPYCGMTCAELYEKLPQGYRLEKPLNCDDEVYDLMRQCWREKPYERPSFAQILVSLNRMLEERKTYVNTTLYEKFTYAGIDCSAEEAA
mTOR/FKBP12 (h) (human), sequence (P42345 1362-2549 limits assumed, chain 1 of 2): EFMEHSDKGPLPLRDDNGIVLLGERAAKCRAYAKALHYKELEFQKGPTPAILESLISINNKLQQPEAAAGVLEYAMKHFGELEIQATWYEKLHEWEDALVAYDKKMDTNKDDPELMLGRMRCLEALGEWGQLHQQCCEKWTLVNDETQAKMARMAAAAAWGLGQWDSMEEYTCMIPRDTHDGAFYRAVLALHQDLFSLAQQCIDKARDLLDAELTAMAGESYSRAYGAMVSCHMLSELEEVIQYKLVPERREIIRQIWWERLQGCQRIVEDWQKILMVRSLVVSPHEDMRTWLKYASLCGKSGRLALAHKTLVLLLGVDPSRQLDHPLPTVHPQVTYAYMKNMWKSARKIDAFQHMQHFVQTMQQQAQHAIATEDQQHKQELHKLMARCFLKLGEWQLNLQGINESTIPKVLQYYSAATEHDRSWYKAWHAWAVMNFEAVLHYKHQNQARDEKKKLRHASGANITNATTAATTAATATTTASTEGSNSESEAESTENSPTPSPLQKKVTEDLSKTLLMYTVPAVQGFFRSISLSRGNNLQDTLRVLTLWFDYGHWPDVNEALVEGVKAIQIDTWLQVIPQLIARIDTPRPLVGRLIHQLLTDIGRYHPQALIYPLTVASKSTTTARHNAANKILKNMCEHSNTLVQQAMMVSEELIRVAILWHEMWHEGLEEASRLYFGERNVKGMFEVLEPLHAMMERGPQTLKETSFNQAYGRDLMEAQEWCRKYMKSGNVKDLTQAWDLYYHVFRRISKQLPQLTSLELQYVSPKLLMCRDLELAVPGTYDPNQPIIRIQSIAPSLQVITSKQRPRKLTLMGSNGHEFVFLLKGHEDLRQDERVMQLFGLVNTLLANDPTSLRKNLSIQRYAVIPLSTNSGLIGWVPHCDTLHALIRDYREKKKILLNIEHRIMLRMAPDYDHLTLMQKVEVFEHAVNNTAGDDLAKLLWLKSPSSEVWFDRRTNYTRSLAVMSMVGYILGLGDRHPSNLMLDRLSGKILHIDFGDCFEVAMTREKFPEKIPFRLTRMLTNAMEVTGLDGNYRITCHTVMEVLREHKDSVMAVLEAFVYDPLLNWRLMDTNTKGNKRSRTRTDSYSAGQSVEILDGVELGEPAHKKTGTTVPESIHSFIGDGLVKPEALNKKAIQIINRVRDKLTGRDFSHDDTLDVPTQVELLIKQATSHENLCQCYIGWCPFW
mTOR/FKBP12 (h) (human), sequence (P62942 whole entry, chain 2 of 2, further chain): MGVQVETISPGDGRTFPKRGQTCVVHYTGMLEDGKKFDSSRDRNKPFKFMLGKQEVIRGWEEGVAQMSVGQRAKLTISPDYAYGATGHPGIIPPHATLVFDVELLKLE
PKBβ (h) (human), sequence (P31751 whole entry): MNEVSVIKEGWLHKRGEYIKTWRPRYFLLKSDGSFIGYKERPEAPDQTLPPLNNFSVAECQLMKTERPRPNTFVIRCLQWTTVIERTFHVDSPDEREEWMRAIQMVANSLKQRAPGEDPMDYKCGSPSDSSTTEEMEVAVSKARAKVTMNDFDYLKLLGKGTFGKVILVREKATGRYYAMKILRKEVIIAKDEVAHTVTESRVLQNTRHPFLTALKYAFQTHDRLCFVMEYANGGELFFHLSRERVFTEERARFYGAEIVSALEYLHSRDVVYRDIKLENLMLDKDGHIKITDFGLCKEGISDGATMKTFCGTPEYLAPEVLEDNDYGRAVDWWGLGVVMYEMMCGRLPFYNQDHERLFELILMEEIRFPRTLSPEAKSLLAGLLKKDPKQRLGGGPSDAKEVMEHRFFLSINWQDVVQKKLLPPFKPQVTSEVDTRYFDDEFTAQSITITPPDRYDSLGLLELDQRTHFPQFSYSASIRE

- % activity at 100 µM (MLK1 (h) (human)): 40%
- % activity at 100 µM [1]: 82%
- % activity at 100 µM (GCK (h) (human)): 70%
- % activity at 100 µM (NEK2 (h) (human)): 78%
- % activity at 100 µM (CLK3 (h) (human)): 61%
- % activity at 100 µM (Rsk4 (h) (human)): 90%
- % activity at 100 µM (CK1γ3 (h) (human)): 125%
- % activity at 100 µM (Aurora-A (h) (human)): 92%
- % activity at 100 µM (Tie2(Y897S) (h) (human)): 83%
- % activity at 100 µM (ALK4 (h) (human)): 140%
- % activity at 100 µM (mTOR/FKBP12 (h) (human)): 145%
- % activity at 100 µM (WNK2 (h) (human)): 64%
- % activity at 100 µM (PAK5 (h) (human)): 110%
- % activity at 100 µM [2]: 5%
- % activity at 100 µM (PKCα (h) (human)): 89%
- % activity at 100 µM (PKBβ (h) (human)): 84%
- % activity at 100 µM (CSK (h) (human)): 49%
Substance: MMI-0300 (peptide)
